From patent US20090117124A1 (Pfizer, published 2009)
Numbering of substitutions follows the chain as printed. Names and notes keep the numbering of the source. One block for each binder: values may come before it.

What was measured:
[1] = biological target: T1, cynomolgus monkey IgE (in cynomolgus serum, Harlan Sera-Lab Ltd) (cynomolgus monkey); experiment: capture ELISA, Test 1, Cyno 4
T1 construct: Serum was the source of IgE; eight serum samples; also called cynomolgus IgE; Cyno 1 to Cyno 8 serum samples
Procedure: (§1) Wells were washed once with 150 μL/well wash buffer (0.05% Tween-20, Sigma, Cat. No. P7949/TBS) then blocked with 150 μL/well 1% BSA (Sigma, Cat. No. A7030) in TBS for 2 hours at room temperature. Wells were washed twice with 150 μL wash buffer. 50 μL human (in-house donors) or cynomolgus serum (Harlan Sera-Lab Ltd, Loughborough) was added from neat to at least 1:16 dilution in 1% BSA/0.05% Tween-20/TBS diluent buffer. […] Wells were incubated for 2 hours at 25° C. before washing (3×150 μL wash buffer). […] Wells were incubated for 1 hour at 25° C. then washed (3×150 μL wash buffer). Streptavidin-HRP (Amersham Bioscience, Cat. No. RPN 1231) diluted 1:1000 in diluent buffer was added to all wells and incubated for 45 minutes at room temperature. Wells were washed (3×150 […] wash buffer). 50 μL OPD (Dako, Cat. No. S2045) was added to all wells and the color allowed to develop for 10 minutes before stopping the reaction with 50 μl 0.6M H₂SO₄ and the absorbance measured at 490 nm.

[2] = biological target: T1, cynomolgus monkey IgE (in cynomolgus …); experiment: capture ELISA, Test 1, Cyno 3
Procedure: as §1

[3] = biological target: T1, cynomolgus monkey IgE (in cynomolgus …); experiment: capture ELISA, Test 1, Cyno 2
Procedure: as §1

[4] = biological target: T2, human IgG3 (Biodesign, Cat. No. A50186H) (human); experiment: ELISA on coated immunoglobulin
T2 construct: Bought immunoglobulin coated on the plate
Procedure: (§2) Wells were washed 3× with 150 μL wash buffer (0.05% Tween-20 (Sigma, Cat. No. P7949)/PBS) then blocked with 150 μL/well blocking buffer (2.5% BSA (Sigma, Cat. No. A7030)/PBS) for 2 hours at room temperature. Wells were washed 3× with 150 μL wash buffer/well. […] Antibodies were diluted in diluent buffer (PBS/1% BSA/0.05% Tween-20) and this was added to blank control wells (duplicate wells for each secondary antibody used). Antibodies were incubated for 2 hours at room temperature. Wells were washed 3× with 150 μL wash buffer/well. Binding of control antibodies to immunoglobulin was detected with anti-mouse IgG-HRP conjugate (Sigma, Cat. No. A4416) diluted 1:8000 in diluent buffer. 50 μL/well was added to control antibody and blank wells. Wells were incubated for 1 hour at room temperature, then washed 3× with 150 μL wash buffer/well. 50 μl OPD (Dako, Cat. No. […] Wells were incubated for 1 hour at room temperature then washed 3× with 150 μL wash buffer/well. Streptavidin-HRP (Amersham Bioscience, Cat. No. RPN 1231) diluted 1:2000 in diluent buffer was added to all wells and incubated for 45 minutes at room temperature. Wells were washed (3×150 μL wash buffer).

[5] = biological target: T3, human IgA (Sigma, Cat. No. I2636) (human); experiment: ELISA on coated immunoglobulin
T3 chain: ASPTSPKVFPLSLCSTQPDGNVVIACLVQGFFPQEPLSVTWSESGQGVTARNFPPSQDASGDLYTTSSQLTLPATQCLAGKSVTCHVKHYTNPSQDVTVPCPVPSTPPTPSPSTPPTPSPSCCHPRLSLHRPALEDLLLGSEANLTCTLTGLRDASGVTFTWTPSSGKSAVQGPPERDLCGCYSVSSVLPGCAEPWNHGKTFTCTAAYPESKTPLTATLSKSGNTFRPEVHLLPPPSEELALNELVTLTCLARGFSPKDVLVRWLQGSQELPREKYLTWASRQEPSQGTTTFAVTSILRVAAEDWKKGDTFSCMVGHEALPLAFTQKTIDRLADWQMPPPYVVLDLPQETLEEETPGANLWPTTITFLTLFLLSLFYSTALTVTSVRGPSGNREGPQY
Procedure: as §2

[6] = biological target: T4, human IgG1 (Biodesign, Cat. No. A50183H) (human); experiment: ELISA on coated immunoglobulin
T4 construct: Bought immunoglobulin coated on the plate
Procedure: as §2

[7] = biological target: T1, cynomolgus monkey IgE (in cynomolgus …); experiment: capture ELISA, Test 1, Cyno 7
Procedure: as §1

[8] = biological target: T1, cynomolgus monkey IgE (in cynomolgus …); experiment: capture ELISA, Test 1, Cyno 1
Procedure: as §1

[9] = biological target: T1, cynomolgus monkey IgE (in cynomolgus …); experiment: capture ELISA, Test 1, Cyno 6
Procedure: as §1

[10] = biological target: T1, cynomolgus monkey IgE (in cynomolgus …); experiment: capture ELISA, Test 1, Cyno 5
Procedure: as §1

[11] = biological target: T1, cynomolgus monkey IgE (in cynomolgus …); experiment: capture ELISA, Test 2, Cyno 2
Procedure: as §1

[12] = biological target: T1, cynomolgus monkey IgE (in cynomolgus …); experiment: capture ELISA, Test 2, Cyno 4
Procedure: as §1

[13] = biological target: T1, cynomolgus monkey IgE (in cynomolgus …); experiment: capture ELISA, Test 2, Cyno 6
Procedure: as §1

[14] = biological target: T1, cynomolgus monkey IgE (in cynomolgus …); experiment: capture ELISA, Test 2, Cyno 7
Procedure: as §1

[15] = biological target: T1, cynomolgus monkey IgE (in cynomolgus …); experiment: capture ELISA, Test 2, Cyno 3
Procedure: as §1

[16] = biological target: T1, cynomolgus monkey IgE (in cynomolgus …); experiment: capture ELISA, Test 2, Cyno 1
Procedure: as §1

[17] = biological target: T1, cynomolgus monkey IgE (in cynomolgus …); experiment: capture ELISA, Test 2, Cyno 5
Procedure: as §1

[18] = biological target: T1, cynomolgus monkey IgE (in cynomolgus …); experiment: capture ELISA, Test 2, Cyno 8
Procedure: as §1

B3: 5.396.1 (recombinant) (antibody, human IgG2, kappa, V domains shown)
VH: QVQLQQWGAGLLKPSETLSLTCAVYGGSFSGYYWSWIRQPPGKGLEWIGEIHHSGSTNYNPSLKSRVTISVDTSKNQFSLKLSSVTAADTAVYYCARDNWNDSFYYYYGMDVWGQGTTVTVSS
VL: DIQMTQSPSSLSASVGDRVTITCRASQGISNHLAWFQQKPGKAPKSLIYAASSLQSGVPSKFSGSGSGTDFTLTISSLQPEDFATYYCQQYNRHPFTFGPGTKVDIKR
notes: Fully human IgG2 kappa, expressed in 293 Freestyle cells; also called recombinant 5.396.1
IgE concentration detected [1]: 0 ng/mL
IgE concentration detected [3]: 0 ng/mL
A290 nm [4]: 0.05 A290 nm
A290 nm [5]: 0.04 A290 nm
A290 nm [6]: 0.07 A290 nm
IgE concentration detected [7]: 0 ng/mL
IgE concentration detected [8]: 30 ng/mL
IgE concentration detected [9]: 3 ng/mL
IgE concentration detected [10]: 37 ng/mL

B4: 5.396.1 Hc-S103N Lc-K61R (antibody, human IgG2, kappa, V domains shown)
VH: B3 VH with S103N
VL: B3 VL with K61R
notes: Human IgG2 kappa; leader omitted; also called 5.396.1 (S103N/K61R); 5.396.1 S103N/K61R
IgE concentration detected [1]: 0 ng/mL
IgE concentration detected [2]: 39 ng/mL
IgE concentration detected [3]: 0 ng/mL
IgE concentration detected [11]: 39 ng/mL
A290 nm [4]: 0.05 A290 nm
A290 nm [5]: 0.04 A290 nm
A290 nm [6]: 0.08 A290 nm
IgE concentration detected [12]: 0 ng/mL
IgE concentration detected [7]: 0 ng/mL
IgE concentration detected [13]: 0 ng/mL
IgE concentration detected [14]: 0 ng/mL
IgE concentration detected [15]: 53 ng/mL
IgE concentration detected [16]: 57 ng/mL
IgE concentration detected [8]: 41 ng/mL
IgE concentration detected [9]: 0 ng/mL
IgE concentration detected [10]: 57 ng/mL
IgE concentration detected [17]: 102 ng/mL
IgE concentration detected [18]: 0 ng/mL

Continued, values first:

IgE concentration detected [1]: 0 ng/mL
IgE concentration detected [2]: 107 ng/mL
IgE concentration detected [3]: 91 ng/mL
A290 nm [4]: 0.05 A290 nm
A290 nm [5]: 0.04 A290 nm
A290 nm [6]: 0.07 A290 nm
IgE concentration detected [7]: 0 ng/mL
IgE concentration detected [8]: 120 ng/mL
IgE concentration detected [9]: 0 ng/mL
IgE concentration detected [10]: 140 ng/mL
B1: 6.605.1 (recombinant) (antibody, human IgG2, kappa, V domains shown)
VH: QVHLVQSGAEVKMPGASVKVSCKASGYTFTSYGISWVRQAPGQGLEWMGWISAYNGNTNYAQKLQGRITMTTDTSTSTAYMDLRSLRSDDTAVYYCARDGDYYDPFDYWGQGTLVTVSS
VL: DIQMTQSPSSLSASVGDRVTITCRTSQSISNWLNWYQQKPGKAPKLLIYGASTLKSGVPSRFSGSESGTDFTLTISSLQPEDFATYYCQQSYSTPPTFGQGTKVEIKR
notes: Human IgG2 kappa; leader omitted; also called recombinant 6.605.1

IgE concentration detected [1]: 0 ng/mL
IgE concentration detected [2]: 122 ng/mL
IgE concentration detected [3]: 103 ng/mL
A290 nm [4]: 0.04 A290 nm
A290 nm [5]: 0.04 A290 nm
A290 nm [6]: 0.07 A290 nm
IgE concentration detected [7]: 0 ng/mL
IgE concentration detected [8]: 133 ng/mL
IgE concentration detected [10]: 173 ng/mL
B2: 6.605.1 Hc-H3Q, M13K, D82E Lc-T25A, T53S (antibody, human IgG2, kappa, V domains shown)
VH: B1 VH with H3Q, M13K, D82E
VL: B1 VL with T25A, T53S
notes: Human IgG2 kappa; leader omitted; also called 6.605.1 (H3Q, M13K, D82E-T25A, T53S); 6.605.1 QKE/AS
